Measurements reported in patent US20210371524A1 (VOR BIOPHARMA, published 2021).
Substitutions are numbered along the chain they refer to.

B1: CD45-AM (chimeric AbA as IgG1 conjugated to amatoxin), Example 2 (antibody, V domains shown)
VH: EVQLVESGGDRVQPGRSLTLSCVTSGFTFNNYWMTWIRQVPGKGLEWVASISSSGGSIYYPDSVKGRFTISRDNAKNTLYLQMNSLRSEDTATYYCARDERWAGAMDAWGQGTSVTVSS
VL: DIQMTQSPPVLSASVGDRVTLSCKASQNINKNLDWYQQKHGEAPKLLIYETNNLQTGIPSRFSGSGSGTDYTLTISSLQPEDVATYYCYQHNSRFTFGSGTKLEIK
modifications: here or on the partner: amatoxin (AM) payload conjugated to the antibody; site and drug to antibody ratio not stated in Example 2
B2: AbA chimera (chimeric Antibody A, human IgG1) (antibody, V domains shown)
VH: B1 VH
VL: B1 VL
notes: also called chimeric AbA
B3: CD45-AM (antibody AbB-amatoxin), Example 4 (antibody, V domains shown)
VH: EVQLVESGGDLVQPGRSLKLSCIASGFTFTNFWMTWIRQVSGKGLEWVASISSSGGSIYYPDSVKDRFTISRDNAKNTLYLQMNSLRSEDTATYYCVKLHYYSGGGDAWGQGTSVTVSS
VL: DIQMTQSPSFLSASVGDRVTINCKASQNINKYLDWYQQKHGEAPKLLIHYTNNLHTGIPSRFSGSGSGTDYTLTISSLQPEDVATYFCLQHSSRWTFGGGTKLELK
modifications: here or on the partner: amanitin conjugated (interchain), drug to antibody ratio (DAR) 4
B4: AbC chimera (chimeric Antibody C, human IgG1) (antibody, V domains shown)
VH: B3 VH with I23V, T30N, F32Y, S41P, Y80F, V97A, K98R, H100Y
VL: B3 VL with N22I, N28D, H40L, H49Y, Y50N, S92I
notes: also called chimeric AbC
B5: AbB chimera (chimeric Antibody B, human IgG1) (antibody, V domains shown)
VH: B3 VH
VL: B3 VL
notes: also called chimeric AbB

Columns and labels:
[1] = molecular target: human CD45 on human cells (PBMC, CD34+CD90+ bone marrow HSCs, cells expressing CD45) (human), P08575; test: cell-based or functional assay
Rhesus CD45RABC [2] = molecular target: T1, Rhesus CD45RABC (rhesus, UniProt A0A1D5R142 26-1310); test: Octet (BLI), monovalent binding; KD on rhesus against KD on human CD45 RABC
T1 sequence: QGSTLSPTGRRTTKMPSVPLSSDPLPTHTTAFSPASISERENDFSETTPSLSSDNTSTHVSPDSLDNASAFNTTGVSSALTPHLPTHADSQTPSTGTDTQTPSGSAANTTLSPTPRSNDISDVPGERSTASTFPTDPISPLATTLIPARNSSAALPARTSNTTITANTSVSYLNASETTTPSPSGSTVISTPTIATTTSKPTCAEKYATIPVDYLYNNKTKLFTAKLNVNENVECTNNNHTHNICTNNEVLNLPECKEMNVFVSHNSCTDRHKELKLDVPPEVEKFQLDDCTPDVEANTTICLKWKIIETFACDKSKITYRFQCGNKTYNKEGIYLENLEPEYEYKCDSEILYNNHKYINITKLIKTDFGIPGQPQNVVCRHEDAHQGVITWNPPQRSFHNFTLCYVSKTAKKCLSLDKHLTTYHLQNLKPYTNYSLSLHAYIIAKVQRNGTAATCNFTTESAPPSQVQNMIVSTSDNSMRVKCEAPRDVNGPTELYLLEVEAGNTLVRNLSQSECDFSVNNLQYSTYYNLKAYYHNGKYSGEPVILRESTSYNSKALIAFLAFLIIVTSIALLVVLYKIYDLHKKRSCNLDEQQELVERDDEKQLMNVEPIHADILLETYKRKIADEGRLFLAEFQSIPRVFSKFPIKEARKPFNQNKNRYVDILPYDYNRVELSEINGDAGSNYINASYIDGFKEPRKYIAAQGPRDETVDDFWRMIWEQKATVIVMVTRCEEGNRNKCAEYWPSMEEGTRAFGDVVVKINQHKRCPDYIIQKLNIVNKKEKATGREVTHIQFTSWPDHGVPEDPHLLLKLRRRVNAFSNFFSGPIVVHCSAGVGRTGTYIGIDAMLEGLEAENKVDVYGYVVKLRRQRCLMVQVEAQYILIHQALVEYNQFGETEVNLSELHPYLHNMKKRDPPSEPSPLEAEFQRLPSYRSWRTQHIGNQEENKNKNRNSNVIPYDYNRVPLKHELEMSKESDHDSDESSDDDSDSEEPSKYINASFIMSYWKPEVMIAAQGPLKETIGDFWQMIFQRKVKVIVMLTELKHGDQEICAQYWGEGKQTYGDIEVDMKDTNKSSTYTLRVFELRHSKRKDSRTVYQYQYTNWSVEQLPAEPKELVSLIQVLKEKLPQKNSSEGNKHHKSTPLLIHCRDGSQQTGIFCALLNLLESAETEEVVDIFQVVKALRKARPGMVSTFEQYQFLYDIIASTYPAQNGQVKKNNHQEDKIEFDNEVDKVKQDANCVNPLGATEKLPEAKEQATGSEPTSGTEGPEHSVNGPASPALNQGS

cynomolgus CD45 RABC [3] = molecular target: T2, cynomolgus CD45 RABC (cynomolgus, UniProt A0A2K5VQ76 26-1301); test: Octet (BLI), monovalent binding; KD on cyno against KD on human CD45 RABC
T2 construct: also called cyno CD45RABC; cyno RABC
T2 sequence: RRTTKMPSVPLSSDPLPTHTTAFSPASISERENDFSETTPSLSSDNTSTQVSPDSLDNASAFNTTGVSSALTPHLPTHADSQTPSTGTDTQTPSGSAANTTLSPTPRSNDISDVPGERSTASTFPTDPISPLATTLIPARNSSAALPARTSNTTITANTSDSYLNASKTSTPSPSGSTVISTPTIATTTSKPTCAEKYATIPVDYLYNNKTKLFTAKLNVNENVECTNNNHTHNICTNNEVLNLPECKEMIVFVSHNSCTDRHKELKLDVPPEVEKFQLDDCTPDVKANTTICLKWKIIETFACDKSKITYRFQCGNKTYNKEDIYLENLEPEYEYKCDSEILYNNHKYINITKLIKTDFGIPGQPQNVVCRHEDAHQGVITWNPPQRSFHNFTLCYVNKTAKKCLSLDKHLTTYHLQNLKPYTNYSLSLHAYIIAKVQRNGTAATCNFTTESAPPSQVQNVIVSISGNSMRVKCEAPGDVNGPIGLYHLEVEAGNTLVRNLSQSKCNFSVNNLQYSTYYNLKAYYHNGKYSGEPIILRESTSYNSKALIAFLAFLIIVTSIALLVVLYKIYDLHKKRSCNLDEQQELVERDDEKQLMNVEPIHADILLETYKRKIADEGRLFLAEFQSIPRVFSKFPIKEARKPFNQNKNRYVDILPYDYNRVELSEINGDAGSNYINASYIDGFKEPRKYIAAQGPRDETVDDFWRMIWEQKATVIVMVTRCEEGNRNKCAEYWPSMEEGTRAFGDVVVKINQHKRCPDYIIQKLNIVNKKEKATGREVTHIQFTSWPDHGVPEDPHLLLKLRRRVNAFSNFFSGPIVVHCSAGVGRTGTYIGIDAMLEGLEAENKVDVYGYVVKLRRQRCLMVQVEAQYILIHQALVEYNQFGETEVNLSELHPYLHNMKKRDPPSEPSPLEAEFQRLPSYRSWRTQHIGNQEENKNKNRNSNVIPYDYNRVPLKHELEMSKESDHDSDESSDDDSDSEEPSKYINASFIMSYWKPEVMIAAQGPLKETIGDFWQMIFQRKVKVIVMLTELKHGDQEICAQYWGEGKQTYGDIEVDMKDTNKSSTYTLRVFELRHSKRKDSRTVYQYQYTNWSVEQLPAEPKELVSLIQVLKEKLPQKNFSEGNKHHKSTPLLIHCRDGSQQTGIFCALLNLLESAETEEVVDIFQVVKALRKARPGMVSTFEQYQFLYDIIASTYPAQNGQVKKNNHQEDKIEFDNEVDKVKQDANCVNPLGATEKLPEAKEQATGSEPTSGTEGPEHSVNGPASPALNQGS

Rhesus CD45RABC [4] = molecular target: T1, Rhesus CD45RABC; test: Octet (BLI), monovalent binding
[5] = molecular target: T3, Human CD45RABC Antigen (Fragment of Human CD45RABC Isoform) (human, UniProt P08575 26-577); test: Octet (BLI), monovalent binding
T3 sequence: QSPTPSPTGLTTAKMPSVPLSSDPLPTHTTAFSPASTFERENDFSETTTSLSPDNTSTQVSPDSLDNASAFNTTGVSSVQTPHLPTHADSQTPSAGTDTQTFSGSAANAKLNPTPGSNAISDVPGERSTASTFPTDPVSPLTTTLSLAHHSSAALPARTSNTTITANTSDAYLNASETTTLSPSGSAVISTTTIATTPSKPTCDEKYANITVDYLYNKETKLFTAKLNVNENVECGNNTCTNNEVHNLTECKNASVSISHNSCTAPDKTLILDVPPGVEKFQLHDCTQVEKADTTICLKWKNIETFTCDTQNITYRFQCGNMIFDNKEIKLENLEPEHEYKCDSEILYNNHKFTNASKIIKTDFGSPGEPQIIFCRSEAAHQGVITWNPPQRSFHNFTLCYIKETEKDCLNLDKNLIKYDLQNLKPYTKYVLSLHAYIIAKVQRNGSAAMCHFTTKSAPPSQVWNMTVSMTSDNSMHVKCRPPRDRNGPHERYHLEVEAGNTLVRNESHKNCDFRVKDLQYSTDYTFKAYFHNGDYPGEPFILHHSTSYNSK

cynomolgus CD45 RABC [6] = molecular target: T2, cynomolgus CD45 RABC; test: Octet (BLI), monovalent binding

Binder	in vitro killing of PBMC immune cells (IC50) [1]	in vitro killing of primary human bone marrow CD34+CD90+ HSCs (IC50) [1]	Fold Rhesus to Hu (Rhesus CD45RABC [2])	Fold cyno to Hu (cynomolgus CD45 RABC [3])	Kd (Rhesus CD45RABC [4])	Kd [5]	Kd (cynomolgus CD45 RABC [6])	in vitro killing of human PBMCs, 4 days, Celltiter Glo [1]	in vitro killing of primary human CD34+CD90+ HSCs, 5 days, flow cytometry counts [1]
B1	0.055 nM	0.067 nM	–	–	–	–	–	–	–
B2	–	–	5 fold	4 fold	12.3 nM	2.34 nM	9.33 nM	–	–
B3	–	–	–	–	–	–	–	614 pM	68 pM
B4	–	–	8 fold	8 fold	63.5 nM	7.54 nM	62.2 nM	–	–
B5	–	–	6 fold	5 fold	15.8 nM	2.84 nM	14.5 nM	–	–
